Laboratory results: US20160207996A1 (ARGEN X N V, published 2016)
Residue numbers refer to the chain shown, from its start.

T1: hNav1.7-loopB1-C1-D1-llama Fc (human)
T1 construct: whole entry: loops B1, C1, D1 joined by linkers, llama Fc; also called hNav1.7-loopB1-C1-D1-llfc
T1 chain: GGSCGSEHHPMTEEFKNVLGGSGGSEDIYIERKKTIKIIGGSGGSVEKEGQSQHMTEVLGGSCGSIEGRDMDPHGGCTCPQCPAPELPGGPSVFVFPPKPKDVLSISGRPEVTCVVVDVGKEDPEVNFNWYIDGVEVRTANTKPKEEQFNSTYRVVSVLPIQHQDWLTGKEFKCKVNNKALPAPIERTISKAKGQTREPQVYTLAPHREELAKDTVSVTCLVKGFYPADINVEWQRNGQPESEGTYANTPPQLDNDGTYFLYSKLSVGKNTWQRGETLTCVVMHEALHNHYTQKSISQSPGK

T2: hNav1.7-loopA3-llama Fc fusion (human)
T2 construct: also called hNav1.7-loopA3-llFc; loopA3-llamaFc chimera
T2 chain: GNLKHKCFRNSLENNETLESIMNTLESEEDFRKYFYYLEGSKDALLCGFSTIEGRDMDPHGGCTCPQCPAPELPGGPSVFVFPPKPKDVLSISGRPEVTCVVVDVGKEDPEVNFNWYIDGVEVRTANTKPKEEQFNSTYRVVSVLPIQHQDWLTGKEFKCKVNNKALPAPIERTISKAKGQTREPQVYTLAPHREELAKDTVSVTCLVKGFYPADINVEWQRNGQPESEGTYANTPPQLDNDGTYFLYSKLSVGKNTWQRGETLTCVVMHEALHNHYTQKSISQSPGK

T3: RatB1-C1-D1-llFc (rat)
T3 construct: also called rat Nav1.7 loopB1-C1-D1 llamaFc chimera
T3 chain: T1 chain with R32K, S52T, Q53E, H54Y, T56D, E57Y

T4: hNav1.5-B1-C1-D1-llFc (human)
T4 construct: also called Nav1.5 extracellular loop B1-C1-D1 llamaFc chimera
T4 chain: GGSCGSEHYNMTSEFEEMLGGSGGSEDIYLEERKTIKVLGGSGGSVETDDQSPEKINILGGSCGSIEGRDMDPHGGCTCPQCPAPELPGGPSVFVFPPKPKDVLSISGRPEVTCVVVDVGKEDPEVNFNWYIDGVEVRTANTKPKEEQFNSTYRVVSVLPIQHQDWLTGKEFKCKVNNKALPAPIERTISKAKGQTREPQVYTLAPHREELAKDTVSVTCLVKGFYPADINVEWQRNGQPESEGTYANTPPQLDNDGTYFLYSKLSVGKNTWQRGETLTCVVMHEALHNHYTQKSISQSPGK

B1: 9A11 (antibody, human IgG1, V domains shown)
VH: EVQLVQPGAEVRRPGAAVKVSCKASGFALISSYIDWVRQAPGQGLEWMGRIDPEDGGTSYAQKFQGRVTVTVDTATSTAYVELSSLRSDDTGVYFCMVGDSGYWGQGTQVTVSS
VL: ATMLTQSPGSLSVVPGESASISCKASQSLVHTDGKTYLSWLLQKPGQSPQRLIYQVSTRGSGVPDRVTGSGSGTDFTLKISGVKAEDAGVYYCAQTTYYPPTFGQGTKVELK
B2: 9G6 (antibody, human IgG1, V domains shown)
VH: EVQLVQPGAELTKPGASVKVSCNTSGYTFTGYYIDWVRQVPGEGLEWMGRIDPEDGDTKYAQKFQGRVTITADTSTTTAYMELSSLRSEDTAVYYCSLGVDYWGQGTQVTVSS
VL: B1 VL with A25T, T32S, S39Y, T58N, G60D, V67F, Y99D, P101V
B3: 9C3 (antibody, V domains shown)
VH: EVQLVQPGAELRNPGTSVKVSCKTSGYYFTSSDIQWVRQAPAQGLEWMGRIDPEDGATKYAPKFQGRVTFTADTFTRTAYVELSNLRSDDTAVYYCMTAGGEYWGKGTLVTVSS
VL: QPVLNQPSALSVSLGQTARITCQGGDFRNYYNNWYQQKPGQAPVLVIYEDSERPSGIPERFSGSSSGDTVILTVSRVQADDEADYYCQSSDSTDNAVFGGGTHLTVL
notes: chimeric llama-human, human IgG1 constant domains
B4: 9A1 (antibody, V domains shown)
VH: EVQLVQPGAELRNPGASVKVSCKASGDTFTDYYIHWVRQAPGQGLEWMGRIDPEDGGTKYTQKFQGRVTFTADTSTSTVYLELDSLRSEDTAVYYCVGDMDYWGKGTLVTVSS
VL: QTVVTQEPSLSVSPGGTVTLTCGLSSGSVTFGNYPSWYQQTPGQAPRTLIYTTNSRHSGVPSRFSGSISGNKATLTISGAQPEDEADFYCALSRVSGTYGTVFGGGTHLTVL
notes: as for B3
B5: scFv A3 (scFv, part only; not given: GS linker, not shown: small tags and cut ends)
scFv, part: QVQVQESGGGLVQPGGSLRLSCATSGFTFSNYYMSWVRQAPGKGPEWVSSIYSDLSTTYYADSVKGRFTISRDRAKNTLYLQMNSLKSEDTAVYYCARLSTVAGVDYWGKGTLVTVSSSYELTQSPSVSVALRQTAKITCGGNNIGSKSAQWYQQKPGQAPVLVIYADYRRPSGIPERFSGSNSGNTATLTISGAQAEDEADYYCQVWDSSANAAVFGGGTHLTVLG
B6: scFv B1 (scFv, part only; not given: GS linker, not shown: small tags and cut ends)
scFv, part: B5 scFv, part
B7: 9F10 (antibody, human IgG1, V domains shown)
VH: B1 VH with A79V
VL: ATMLTQSPGSLSVGPGESASISCKAGQSLTHPNGKTYLSWLLQKPGQSPRRLIYETSNRDPGVPDRFTGSGSGTDFTLRIVGVTVEDAGVYYCAQTTYFPIAFGQGTKVELK
B8: 9C12 (antibody, V domains shown)
VH: B1 VH with A79V
VL: ATMLTQSPASLSVVPGESASISCKASQSLVHSDGKTYLYWLLQKPGQSPQRLIYQVSNRGSGVPDRFTGSGSGTDFTLKISGVKAEDAGVYYCAQHTYYPPSFGSGTRLEIK
notes: as for B3
B9: mAb 6A1 (antibody, IgG1, V domains shown)
VH: EVQLVESGGGLVQPGGSLRLSCAASGFTFSRNAMTWVRQAPGKGLEWVSAISSTGNSITEADSVKGRFTISRDNAKNMLYLQMNSLKPEDTAVYYCAKLGGDTWYMEYWGQGTQVTVSS
VL: SYELTQSPSMSVALRQTAKITCGGNNIGSKSAQWYQQKPGQAPVLVIYADNRRPSGIPERFSGSNSGNTATLTISGAQAEDEADYYCQVWDSSANAVFGRGTHLTVLG

The binders below were run against human Nav1.7 (full length) (human) (UniProt Q15858) (assay: cell-based or functional assay).

Row | Binder | % inhibition of inward current following P02 voltage protocol, 10 µg/ml [%] | % inhibition of inward current following P02 voltage protocol, 25 µg/ml [%] | % inhibition of inward current following P02 voltage protocol, 100 µg/ml [%]
1 | B1 | 16 | 49.4 | 62.3
2 | B2 | 11.8 | 22.8 | 37.5
3 | B3 | 18.3 | 21.6 | 36.9
4 | B4 | 6.4 | 24.3 | 37.5

What follows are binders tested against Nt-GCGR-hFc (human) (UniProt P47871) (assay: scFv binding ELISA, periplasmic extract on coated Nt-GCGR).
Nt-GCGR-hFc (human), sequence (P47871 26-136): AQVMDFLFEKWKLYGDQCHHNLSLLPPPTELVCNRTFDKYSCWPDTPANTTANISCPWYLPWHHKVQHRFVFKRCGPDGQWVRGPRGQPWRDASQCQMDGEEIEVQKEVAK

Row | Binder | ScFv binding ELISA signal
5 | B5 | 0.883
6 | B6 | 0.749

Molecular target: T1, hNav1.7-loopB1-C1-D1-llama Fc
Assay: ELISA, coated loop-B1-C1-D1-llama Fc 20 ng/well, mAb titrated
Procedure: mAbs originating from the loopA3-llama Fc immunization were assayed for their affinity for hNav1.7-loopA3. Therefore, a Maxisorp plate was coated with 10 ng/well of loopA3-llamaFc chimera and incubated overnight at 4° C. The next day, the plate was blocked with PBS+1% casein for 2 hours at RT. Subsequently a concentration gradient of antibodies was applied (range 0.25 pM-66 nM) for another hour. Antibody binding to loopA3 was detected using a HRP-conjugated anti-human Fc antibody (Abcam, Ab7499) (incubation 1 hour at RT, dilution 1/5000 in PBS+0.1% casein), followed by TMB addition and OD620 nm measurement. EC50 values were determined using GraphPad Prism software. For comparison purposes a known hNav1.7-loopA3 binding monoclonal antibody, UCB_932 (US2011/0135662), was tested.
In a next experiment, the binding affinity of the loop-specific mAbs was determined and compared to reference mAbs as described in US2011/0135662 (for loop A3: UCB_932, for loopB1-C1-D1: UCB_983, for loopC3: UCB_1066; US2011/0135662). Affinities were determined using an ELISA with a loop-coating of 10 ng/well (loopA3-llama Fc), 20 ng/well (loop-B1-C1-D1-llama Fc) or 50 ng/well (loopC3-llama Fc). The remainder of the experimental setup was identical to abovementioned binding ELISAs. Most of the mAbs show pM affinity for the respective hNav1.7 extracellular loop they are binding. […] The EC₅₀ for the reference mAbs could not be determined (nd) from the ELISA data available because the binding was too weak.

Row | Binder | EC50 [nM]
7 | B1 | 0.091
8 | B7 | 0.081
9 | B8 | 0.22
10 | B3 | 0.17
11 | B4 | 0.33

Molecular target: T2, hNav1.7-loopA3-llama Fc fusion
Assay: binding ELISA on coated loop-llama Fc chimera (20 ng/well), OD620
Procedure: (§1) For all DNA-immunization derived mAbs the binding affinity for the various hNav1.7-loop-llama Fc chimeras was tested in a binding ELISA. Therefore, a Maxisorp plate (Nunc) was coated with 20 ng/well of hNav1.7-loopA3-llama Fc, hNav1.7-loopB1-C1-D1-llama Fc or hNav1.7-loopC3-llama Fc. Remainder of the ELISA setup is as described above. […] Only at very high concentration minor cross-reactivity is observed for some clones.

Row | Binder | binding result
12 | B7 | no binding (tested: about 66 nM)
13 | B8 | no binding (tested: about 66 nM)
14 | B3 | binds
15 | B4 | binds

Molecular target: T1, hNav1.7-loopB1-C1-D1-llama Fc
Assay: as above
Procedure: as §1

Row | Binder | binding result
16 | B2 | binds

What follows are binders tested against T5, Nt-GCGR-hFc (human, UniProt P47871 26-136) (assay: ELISA with a titration of biotin-Nt-GCGR (x axis) against the mAbs, OD620).
T5 construct: domain: N-terminal domain; also called Nt-GCGR-Fc; recombinant N-terminal domain of GCGR; not shown: hFc
T5 sequence (P47871 26-136): as above

Row | Binder | binding result
17 | B9 | no binding (tested: about 20 ng/ml biotin-Nt-GCGR)

Molecular target: T3, RatB1-C1-D1-llFc
Assay: binding ELISA; the panel prints no target, by paragraph 562 the coated rat loop B1-C1-D1-llama Fc

Row | Binder | binding result
18 | B7 | binds
19 | B8 | binds
20 | B3 | binds
21 | B4 | binds

Molecular target: T4, hNav1.5-B1-C1-D1-llFc
Assay: binding ELISA; the panel prints no target, by paragraph 288 and paragraph 555 the coated hNav1.5 loop B1-C1-D1-llama Fc
From the text: The therapeutic potency of an anti-hNav1.7 antibody will highly depend on the lack of binding to other Nay family members. Of particular interest is hNav1.5, which is expressed on cardiac muscle cells. As such, cross-reactive binding of hNav1.7 antibodies to hNav1.5 could lead to heart failure. To assay the specificity of the mAbs derived from DNA immunization for hNav1.7, the corresponding loopA3 and loopB1-C1-D1 sequences of hNav1.5 were cloned as llamaFc chimera and cross-reactivity was determined using a binding ELISA (FIG. 8). All clones, except clone 9A6 and 9H4, show no cross-reactivity to hNav1.5. In addition, cross reactivity for hNav1.2 was tested for the loopA3-binding clones 8A7 and 8B6 using hNav1.2 and hNav1.7 derived monomeric, GST-tagged loopA3 peptides (Abnova, H00006326-Q01 (hNav1.2) and H00006335-Q01 (hNav1.7)). Again, no cross-reactive binding was observed.

Row | Binder | binding result
22 | B1 | no binding (tested: about 130 nM)
23 | B2 | no binding (tested: about 130 nM)
24 | B7 | no binding (tested: about 130 nM)
25 | B8 | no binding (tested: about 130 nM)
26 | B3 | no binding (tested: about 130 nM)
27 | B4 | no binding (tested: about 130 nM)
